Read-outs that look alike come from different tables or passages of the source.

Assay [1] addresses human Angiotensin II Type 1 receptor (human) (UniProt P30556).
For assay [2] the target is unchanged. This is another data set of the same source.
Assay [3] has the same target. The source holds these as a separate data set.
For assay [4] the target is unchanged. This is another data set of the same source.
Assay [5] has the same target. This is another data set of the same source.
Assay [6] has the same target. This is another data set of the same source.
For assay [7] the target is unchanged. The experiment in a line: radioligand binding.

human Angiotensin II Type 1 receptor (human), sequence (P30556 whole entry): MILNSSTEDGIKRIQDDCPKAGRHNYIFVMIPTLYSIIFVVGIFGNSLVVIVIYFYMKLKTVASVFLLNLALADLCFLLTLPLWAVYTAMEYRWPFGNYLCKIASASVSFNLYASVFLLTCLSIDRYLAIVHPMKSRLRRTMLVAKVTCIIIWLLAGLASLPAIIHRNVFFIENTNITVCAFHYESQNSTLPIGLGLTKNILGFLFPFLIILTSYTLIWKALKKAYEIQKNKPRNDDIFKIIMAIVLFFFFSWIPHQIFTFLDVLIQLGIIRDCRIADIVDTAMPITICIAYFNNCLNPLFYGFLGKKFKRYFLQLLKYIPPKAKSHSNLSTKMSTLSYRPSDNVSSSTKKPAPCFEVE

A word on the Ki: it is a dissociation constant, usually derived from enzyme kinetics or from competition with a known ligand. For the substance “AngII analog 11 (Tyr(Me) at position 8) (from UniProt P01019)”, the inhibition constant (Ki) in assay [1] amounted to 0.23 nM.

Regarding “AngII analog 11 (Tyr(Me) at position 8) (peptide)”, in assay [2], the Gαq activation (GABY BRET sensor, HEK293 cells expressing AT1R), EC50 was found to be 1.1 nM and the β-arrestin2 recruitment (BRET, HEK293 cells expressing AT1R), EC50 was 0.36 nM.

Regarding “AngII analog 12 (Tyr(Bzl) at position 8) (peptide)”, in assay [2], the Gαq activation (GABY BRET sensor, HEK293 cells expressing AT1R), EC50 was > 10000 nM and the β-arrestin2 recruitment (BRET, HEK293 cells expressing AT1R), EC50 is 2.5 nM.

As for “AngII analog 13 (Bip at position 8) (peptide)”, the β-arrestin2 recruitment (BRET, HEK293 cells expressing AT1R), EC50 in assay [2] was determined as 15 nM.

For the substance “AngII analog 14 (p-tBuPhe at position 8) (peptide)”, the β-arrestin2 recruitment (BRET, HEK293 cells expressing AT1R), EC50 in assay [2] was determined as 26 nM.

As for “AngII analog 15 (Dip at position 8) (peptide)”, the Gαq activation (GABY BRET sensor, HEK293 cells expressing AT1R), EC50 in assay [2] was found to be 7.9 nM.

For the substance “AngII analog 16 (Ser(Bzl) at position 8) (peptide)”, the Gαq activation (GABY BRET sensor, HEK293 cells expressing AT1R), EC50 in assay [2] is > 10000 nM.

In the case of “AngII analog 20 (4ThzAla at position 8) (peptide)”, the Gαq activation (GABY BRET sensor, HEK293 cells expressing AT1R), EC50 in assay [3] is 14 nM.

Substance “AngII analog 22b ((m-NO2)Phe at position 8) (peptide)” returned a Gαq activation (GABY BRET sensor, HEK293 cells expressing AT1R), EC50 in assay [4] of 4.4 nM.

For “AngII analog 23a ((o-CN)Phe at position 8) (peptide)”, in assay [5], the Gαq activation (GABY BRET sensor, HEK293 cells expressing AT1R), EC50 is > 10 µM and the β-arrestin2 recruitment (BRET, HEK293 cells expressing AT1R), EC50 is < 2.5 nM.

For the substance “AngII analog 23b ((m-CN)Phe at position 8) (peptide)”, the Gαq activation (GABY BRET sensor, HEK293 cells expressing AT1R), EC50 in assay [4] was 5.9 nM.

On to “AngII analog 24a ((o-OH)Phe at position 8) (peptide)”, for which, in assay [6], the Gαq activation (GABY BRET sensor, HEK293 cells expressing AT1R), EC50 came to 2.1 nM.

For the substance “AngII analog 24b ((m-OH)Phe at position 8) (peptide)”, in assay [4], the Gαq activation (GABY BRET sensor, HEK293 cells expressing AT1R), EC50 was 4.6 nM.

With “AngII analog 27b ((m-I)Phe at position 8) (peptide)”, the Gαq activation (GABY BRET sensor, HEK293 cells expressing AT1R), EC50 in assay [4] was 4.5 nM.

Turning to “AngII analog 28b ((m-Br)Phe at position 8) (peptide)”, the Gαq activation (GABY BRET sensor, HEK293 cells expressing AT1R), EC50 in assay [4] was 1.9 nM.

Turning to “AngII analog 29b ((m-Cl)Phe at position 8) (peptide)”, in assay [4], the Gαq activation (GABY BRET sensor, HEK293 cells expressing AT1R), EC50 turned out to be 1.5 nM.

In assay [4], “AngII analog 29c ((p-Cl)Phe at position 8) (peptide)” displayed a Gαq activation (GABY BRET sensor, HEK293 cells expressing AT1R), EC50 of 2.5 nM.

For the substance “AngII analog 30a ((o-F)Phe at position 8) (peptide)”, the Gαq activation (GABY BRET sensor, HEK293 cells expressing AT1R), EC50 in assay [6] came out at 1 nM.

Substance “AngII analog 30b ((m-F)Phe at position 8) (peptide)” registered a Gαq activation (GABY BRET sensor, HEK293 cells expressing AT1R), EC50 in assay [4] of 2.4 nM.

Regarding “AngII analog 30c ((p-F)Phe at position 8) (peptide)”, in assay [4], the Gαq activation (GABY BRET sensor, HEK293 cells expressing AT1R), EC50 was 1.7 nM.

In assay [7], TRV027 (peptide) had a Ki of 6.6 nM.

(Values after paper doi:10.1101/2025.08.13.670122.)
